# Data reported in patent US11298402B2, “Lysosomal degradation of lipids and proteins and method of use thereof” (University of Ottawa, priority 2015, dated 2022).
# Columns and labels:
# [1] = system: mice; assay: Mice fed a high fat diet for 30 days, adenoviral vector via tail vein; type: in vivo; conditions: HFD 30 days, Adv-MG1023 10^9 pfu/mouse, 48 h; vs empty vector
# From the text: (§1) Mice were fed with a high fat diet (HFD) for 30 days, and injected with Adv-empty vector (EV) or Adv-MG1023 expressing Arl8b^T34N via the tail vein (10^9 pfu/mouse). Forty eight hours after virus injection, mice were euthanized and dissected to collect liver tissue samples. Liver tissues were frozen fresh in Cryomatrix (ThermoScientific), and then sectioned and processed for oil red o staining. Intrahepatic liver lipid droplets in the liver sections were observed under bright field microscope (Zeiss AxioImager M2).
# as §1, with “In FIG. 48, mice” for “Mice”, “Adv-MG1023 vector (FIG. 46)” for “Adv-MG1023”, “tissues.” for “tissue samples.”
# [2] = system: mice; assay: High fat diet and PO gavage for 10 days (palm oil-induced NASH mouse model); type: in vivo; conditions: HFD and PO gavage 10 days; in comparison with Arl8b^Q75L-treated mice
# Description: For comparison, control mice were treated with Adv-MG1022 (a vector expressing Arl8b^Q75L) and then subjected to HFD and PO gavage for 10 days. (A) provides visceral views, and liver morphology views, of Arl8b^Q75L and Arl8b^T34N-treated mice, showing enhanced resistance to fatty liver and fat accumulation in Arl8b^T34N-treated mice. (B) provides images of liver sections stained with Oil Red O from mice subjected to a high fat diet and PO gavage for 10 days followed by treatment with Adv-MG1023 vector expressing Arl8b^T34N. For comparison, images of liver sections stained with Oil Red O obtained from mice treated with Adv-MG1022 (a vector expressing Arl8b^Q75L) and then subjected to HFD and PO gavage for 10 days are also provided.
# In FIG. 49, mice were subjected to a high fat diet and PO gavage for 10 days, followed by treatment with Adv-MG1023 vector expressing Arl8b^T34N. For comparison, mice were treated with Adv-MG1022 (a vector expressing Arl8b^Q75L; FIG. 46) and then subjected to HFD and PO gavage for 10 days. These experiments may be considered as palm oil-induced NASH mouse models. FIG. 49A provides visceral views, and liver morphology views, of Arl8b^Q75L and Arl8b^T34N-treated mice, showing enhanced resistance to fatty liver and fat accumulation in Arl8b^T34N-treated mice. […]
# [3] = system: HCV core protein expressing cells; assay: Imaging of HCV core protein expressing cells; type: cell-based
# From the text: This may be because the presence of HCV core protein may “lock” lysosomes onto the LD surface during the lysosomal engulfment process, resulting in scattered distribution of lysosomes throughout the cell cytoplasm. This situation is similar to that observed in cells after prolonged treatment with oleate (see FIG. 36, top row). White arrows indicate HCV core protein (pseudo-colored in green) and lysosomes (LysoTracker; blue) in association with LDs;
# FIG. 41 provides data illustrating the effect of Arl8b “DN” on HCV core distribution and interaction between lysosomes and lipid droplets.
# As shown in HCV core protein expressing cells (FIG. 41, left panel), the HCV core proteins (GFP-tagged) are bound to CLDs. The core protein binding to the CLDs apparently renders persistent lysosomal interaction with CLDs (i.e. kiss without run) and thus impaired microautophagy. As explained with reference to FIG. 39, functional microautophagy includes proper lysosomal engulfment (Kiss) and termination of this process, via lysosomal “go”, “interact”, and “back” events. As detailed herein, by introducing a putative GDP-bound form or Arl8b (Arl8b^T34N) into the HCV core protein-expressing cells, microautophagy functionality may be restored (FIG. 41, right panel). […]
molecule,measurement,setting,value
"Arl8b^T34N: putative GDP-bound, dominant negative Arl8b mutant (Thr-to-Asn at 34; SEQ ID NO: 12), expressed from plasmid or adenovirus Adv-MG1023; tagged forms used (protein, GFP/RFP tags in some forms; T34N substitution, GDP-binding, tagged forms used) MLALISRLLDWFRSLFWKEEMELTLVGLQYSGKNTFVNVIASGQFSEDMIPTVGFNMRKVTKGNVTIKIWDIGGQPRFRSMWERYCRGVNAIVYMIDAADREKIEASRNELHNLLDKPQLQGIPVLVLGNKRDLPNALDEKQLIEKMNLSAIQDREICCYSISCKEKDNIDITLQWLIQHSKSRRS",abdominal fat accumulation,[1],less abdominal fat
same,fatty liver (Oil Red O),[1],more resistant to fatty liver
same,obesity,[1],less obese
same,fatty liver disease arising from HFD,[2],enhanced resistance to fatty liver disease
same,HCV core protein distribution on CLD,[3],displaced HCV core protein from the CLD surface
same,lysosome association with LD surface,[3],effectively displace lysosomes from LD surface
